Assay results as given in the supplement of paper PMC9732359.
± gives the uncertainty stated by the source.

Test: protein stability index of a GFP-peptide fusion (yeast GPS) (PSI 1-4); higher = more stable; sorted into four equal gates, so the index is relative within each strain
Settings: san1∆
Outline: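 Each library plasmid carries Cherry plus GFP with a tiled 17-residue yeast protein peptide fused downstream, and the pooled library was carried in yeast. Mid-log cultures in leucine-free medium were sorted into four equal gates by GFP/Cherry ratio. Reads from Illumina sequencing of PCR-amplified plasmids from each gate were assigned to strains by barcodes. Per peptide, the protein stability index was computed as the summed products of gate read frequency and gate number.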

Row | Sequence | protein stability index
1 | ETSGVTTALLKDEEIEK [MED8] | 2.84 ± 0.17
2 | ETTTEEDSENPSDWQRN [ITC1] | 3.06 ± 0.11
3 | EVALFSQKAKLMTFNAE [YLR335W/NUP2] | 1.5 ± 0.1
4 | EVAQLGSLACDTADEAK [RPB4] | 3.28 ± 0.17
5 | EVDYEDKDNPVDSRNET [SRB4] | 3.47 ± 0.12
6 | EVEVSTRDLFDLEKDRA [RPO31] | 3.28 ± 0.042
7 | EVIFSFEGTPPFSLTYV [YMR129W/POM152] | 2.11 ± 0.083
8 | EVKEQLGILKKKRFDEF [SMC4] | 2.35 ± 0.23
9 | EVQCTSTPYLEILVEES [PCI8] | 2.33 ± 0.14
10 | EVSTSTSMTGDANLLEE [SWI3] | 3.24 ± 0.042
11 | EVTEEQAEATEWAEENA [RPS0A] | 2.99 ± 0.13
12 | EVVEAVTVVDTPPVVVV [RPL3] | 1.48 ± 0.095
13 | EVYMRYRNFMVNSYRLN [SWI3] | 1.46 ± 0.099
14 | EVYTKTIEVLDEVITEG [POP7] | 3.15 ± 0.053
15 | EWVKLHRLLQRALFRQL [RMP1] | 2.86 ± 0.14
16 | EYEKRNHGGSLGKYDLT [SRP68] | 2.15 ± 0.14
17 | EYIFEAHEIIKREEKAM [CDC53] | 2.54 ± 0.086
18 | EYLFKPQLISDKFSPED [ARP7] | 2.32 ± 0.056
19 | EYLKRVSVPVSGQKTNR [SIR3] | 3.06 ± 0.13
20 | EYMKRHPTTIESLREIP [SEC65] | 3.17 ± 0.059
21 | EYRDLYTNSVELRSLSK [YMR129W/POM152] | 3.24 ± 0.065
22 | EYSDNFPVSLSQPSKKS [SIR4] | 2.98 ± 0.04
23 | FAEENITHKLTKNDAGS [BRR2] | 2.88 ± 0.055
24 | FAGEAGDTVQFAEYIQA [PRE1] | 1.75 ± 0.13
25 | FAIRDDRDHINPDDLMK [RPT4] | 3.51 ± 0.093

Row | Sequence | protein stability index
26 | FAQENSELAVATTSVMM [SRB6] | 3.13 ± 0.07
27 | FAQGKRRYDRKQSGFGG [RPL42A] | 3.06 ± 0.29
28 | FASNKKINDESSIDKKS [YML103C/NUP188] | 2.64 ± 0.068
29 | FATTKAECISLICSIGL [ECM29] | 1.65 ± 0.13
30 | FAVIYLCDIDEVSDFDE [DIB1] | 1.51 ± 0.17
31 | FDEFMNVVIDEAVEIPV [SME1] | 2.94 ± 0.071
32 | FDIYNRDRKLITDKGTV [YJL039C/NUP192] | 2.86 ± 0.11
33 | FDPFQAVSRSMTDIWNT [ECM29] | 2.85 ± 0.062
34 | FDQSTNVKVIMATNRAD [RPT3] | 1.52 ± 0.074
35 | FDRHCNMVLENVKELWT [SMD2] | 1.84 ± 0.1
36 | FDYMNRYWVQKERSDGK [CDC53] | 2.39 ± 0.21
37 | FEDQVTNILTKVDINAD [PRP28] | 3.2 ± 0.18
38 | FEEDEKNSDVWFLDHNY [RPN8] | 1.5 ± 0.14
39 | FEGCYYTPEESAWIWPM [RPC25] | 2.55 ± 0.2
40 | FEGVTHRWGTKKLPRKT [RPL3] | 3.11 ± 0.082
41 | FEIIDEASKKSAVKPRP [FAS1] | 3.45 ± 0.064
42 | FEIQGVPPMKLAYSKIV [YMR129W/POM152] | 1.53 ± 0.1
43 | FERFPSPSTSANVPSTA [RPN4] | 1.56 ± 0.077
44 | FESLYNSNDSVFVGSGK [BRR2] | 2.97 ± 0.13
45 | FFAAIRFVLSDDYSNLK [SMC3] | 2.56 ± 0.1
46 | FGAKPEEQKSSDTSKPA [YJL041W/NSP1] | 3.32 ± 0.088
47 | FGDTKSESKQLGNTSSV [SWI3] | 3.13 ± 0.066
48 | FGHIMEDFQVLRLGRGI [YDL088C/ASM4] | 2.49 ± 0.068
49 | FGRTLASVTKEILGTAQ [RPL12A] | 1.38 ± 0.084
50 | FGVTKARWPAKSVKFVQ [RPL17A] | 2.55 ± 0.069

Row | Sequence | protein stability index
51 | FHSTYLMNGVKPFKSFL [FAS1] | 3.33 ± 0.15
52 | FIAVGQILPESQWNDSS [SIR3] | 2.61 ± 0.24
53 | FIERNFTPQEIEYCSAQ [FAS2] | 2.72 ± 0.26
54 | FIKFKLIQQVPPGLDAL [CDC53] | 2.23 ± 0.13
55 | FIRVIGSELVQKYVGEG [RPT1] | 3 ± 0.083
56 | FISSGTSLLDSLISVLE [YJL039C/NUP192] | 2.17 ± 0.08
57 | FITFSLDDWISIGYETE [IRR1] | 2.65 ± 0.084
58 | FITRLAQGLLHLGKGTM [RPN1] | 2.3 ± 0.14
59 | FIVVPDLLKNAPLFKKN [SMD3] | 1.66 ± 0.11
60 | FIYKKVLKEKDVPAYNV [SRB8] | 2.95 ± 0.058
61 | FKELCYENKDNLTAGII [PRE3] | 2.93 ± 0.034
62 | FKGALTIKILPENTAMF [YMR129W/POM152] | 2.33 ± 0.056
63 | FKGVIVKIVDKDGIRQV [PRE1] | 3.16 ± 0.23
64 | FKHISVKDFTSLGFNEV [RPO21] | 2 ± 0.14
65 | FKLVSTPSSNSNSSELE [MED1] | 2.35 ± 0.057
66 | FKQSNSETFLQFYVKRW [CDC53] | 2.96 ± 0.097
67 | FKRNAVFVGTIFAGAFV [QCR9] | 1.26 ± 0.12
68 | FKVQELLHSKPSLLLQK [NAS6] | 2.64 ± 0.14
69 | FKYIYELILAGAIDEAL [YDL116W/NUP84] | 1.44 ± 0.1
70 | FKYVEDRFPLKLREPVA [ITC1] | 1.81 ± 0.26
71 | FLDGIYVSHKGFITEDL [RPL9A] | 2.43 ± 0.1
72 | FLDYTTDNVSMYPSPTG [PRP8] | 2.7 ± 0.06
73 | FLERKCVHMVYEYAEHD [SSN3] | 1.69 ± 0.09
74 | FLGYKAGMTTIVRDLDR [RPL3] | 2.93 ± 0.078
75 | FLIIVPKSTLDNWRREF [ISW2] | 1.94 ± 0.16

Row | Sequence | protein stability index
76 | FLKERLMEASDAFRVHI [RPB2] | 2 ± 0.15
77 | FLKKLRNEQVTIELKNG [SMD1] | 2.42 ± 0.056
78 | FLLRRVKADVEKSLLPK [ISW2] | 3.02 ± 0.079
79 | FLPFNNSASNNGNLTSN [SWI1] | 3.07 ± 0.058
80 | FLPKLNSVRNSLLLAHF [NUT1] | 1.65 ± 0.07
81 | FLQHPDEEYPVKVKVSY [PRP8] | 3.21 ± 0.082
82 | FLTVSKLWAEIIVKILY [GRR1] | 1.53 ± 0.087
83 | FMKSVIRSREAFSYEQA [DIS3] | 2 ± 0.13
84 | FNAPATGNGTTTTSNTS [YOR098C/NUP1] | 2.8 ± 0.035
85 | FNDFSNIKTSEWDLYPQ [REC8] | 2.78 ± 0.075
86 | FNGYNPEKKEMIQEVIV [FAS2] | 3.4 ± 0.08
87 | FNSFRRFKSQFLYVLIP [QCR8] | 1.56 ± 0.12
88 | FNVVDVGVDQLSIELEG [YJL039C/NUP192] | 3.29 ± 0.038
89 | FNYVQECPAIPIFNYIF [YJL039C/NUP192] | 1.88 ± 0.082
90 | FPEENIIDAKTRNEQTT [MCD1] | 3.19 ± 0.052
91 | FPPNLEKGENPSCVYNL [UBP6] | 1.15 ± 0.16
92 | FQAVIQKSINHPPDFKR [SNF2] | 3.02 ± 0.14
93 | FQDTLYKKIPLLGPTLE [QCR10] | 2.47 ± 0.18
94 | FRCKETHSYNFMRQNLE [RPC82] | 1.96 ± 0.093
95 | FSHPAHQQRMSRTAADI [YCG1] | 2.4 ± 0.074
96 | FSHSLTTILSFSSPAAL [NUT1] | 1.35 ± 0.063
97 | FSKFERSKSSHKNERRV [SKI6] | 3 ± 0.064
98 | FSNVELPQCIIPSSYIK [ARP7] | 2.28 ± 0.051
99 | FSSNLSYANHLEESDVE [YOR098C/NUP1] | 1.91 ± 0.082

Same assay, conditions: ubr1∆

Row | Sequence | protein stability index
100 | ETSCDNYHPMNIDETSD [SMC4] | 3.17 ± 0.051
101 | ETSGVTTALLKDEEIEK [MED8] | 3.63 ± 0.11
